Publication PMC8230800, “Interaction of Temporin-L Analogues with the E. coli FtsZ Protein” (Antibiotics, 2021)
Ends that are not written are not given here.

B3: Escherichia coli FtsZ protein (enzyme, E. coli, UniProt P0A9A6 1-383, looked up)
chain: MFEPMELTNDAVIKVIGVGGGGGNAVEHMVRERIEGVEFFAVNTDAQALRKTAVGQTIQIGSGITKGLGAGANPEVGRNAADEDRDALRAALEGADMVFIAAGMGGGTGTGAAPVVAEVAKDLGILTVAVVTKPFNFEGKKRMAFAEQGITELSKHVDSLITIPNDKLLKVLGRGISLLDAFGAANDVLKGAVQGIAELITRPGLMNVDFADVRTVMSEMGYAMMGSGVASGEDRAEEAAEMAISSPLLEDIDLSGARGVLVNITAGFDLRLDEFETVGNTIRAFASDNATVVIGTSLDPDMNDELRVTVVATGIGMDKRPEITLVTNKQVQQPVMDRYQQHGMAPLTQEQKPVAKVVNDNAPQTAKEPDYLDIPAFLRKQAD
notes: also called recombinant FtsZ; source: E. coli BL21, overexpressed and purified as described previously [7]

Tests used:
[1] = molecular target: T1, FtsZ (recombinant E. coli FtsZ) (Escherichia coli, UniProt P0A9A6); assay: Fluorescence binding experiment (spectrofluorimetric titration); details: FtsZ 12 μM, peptide 1 to 180 μM, 20 °C, excitation 280 nm, emission 347 nm, one site-specific binding fit, in duplicate; read-out: Kd of FtsZ-peptide complex
T1 construct: made in house; host or cells: E. coli BL21
Method: Right panel (d–f): Diagram plots extrapolated from fluorescence data. The experiments were performed in duplicate and the standard deviation is reported as error bars.
(§1) Recombinant E. coli FtsZ was overexpressed and purified from E. coli BL21 strain as described previously. The purity of the protein was analyzed by SDS-PAGE 12.5% and its primary structure was validated by MALDI mapping strategy on a 5800 MALDI-TOF/TOF instrument (ABI Sciex, Foster City, CA, USA). The concentration of purified FtsZ was determined by Bradford’s method, using BSA as a standard. The protein was stored at −80 °C.
Fluorescence experiments were performed using a Fluoromax-4 spectrofluorometer from Horiba Scientific, using 1 cm optical path-length quartz cell under controlled temperature conditions (Peltier control system at 20 °C). The sample was analyzed, monitoring the fluorescence intensity of aromatic residues with an excitation wavelength of 280 nm. The wavelength range explored was 295–500 nm. […] All experiments were repeated in duplicate. The change in the fluorescence intensity of the reaction set was fitted into “one site-specific binding” equation of GraphPad Prism 5 (GraphPad Software, San Diego, CA, USA).

[2] = molecular target: T1, FtsZ (recombinant E. coli FtsZ); assay: GTPase activity assay (BIOMOL Green Pi release); assay type: biochemical; details: 35 µM peptide, GTP substrate, 25 mM PIPES/NaOH pH 6.8
Method: The putative effect of the two TL analogues on FtsZ GTPase activity was evaluated by enzymatic assays.
The reaction was performed for 10 min and the Pi release was determined by measuring the absorbance at 620 nm following 25 min incubation. (b) Lineweaver−Burk plots from which the KM constants were calculated. (c) Calculated KM constants and Vmax for the enzymatic assays. The experiment was performed in duplicate and presented as mean ± standard error.
as §1
The amount of Pi released during the assembly of FtsZ was measured using BIOMOL Green phosphate reagent (Biomol, Milan, Italy) as described earlier. […] The reaction was performed for 10 min and stopped by addition of 100 µL BIOMOL Green reagent. The Pi release was determined after incubation at 25 °C for 25 min by measuring the absorbance at 620 nm. The background was subtracted from all the readings. The experiment was performed in duplicate. […]

[3] = molecular target: B3; assay: other fluorescence titration; intrinsic fluorescence of FtsZ (12 µM), excitation 280 nm, emission 347 nm, 20 °C, peptide from 1 to 180 µM, fitted to 'one site-specific binding', duplicate; details: both partners purified
[4] = molecular target: the molecule itself; assay: co-sedimentation; polymerization assay: FtsZ 12 µM in 25 mM PIPES/NaOH pH 6.8, 1 mM GTP, 25 °C 1 h, without or with 10, 30, 50, 70 µM peptide; centrifugation 14,000 rpm 60 min, pellet on SDS-PAGE, densitometry

Molecule: FVKWFKKFLTRILF [TRILF]
- Kd [1]: 4.3 ± 0.2 µM

Molecule: Magainin-2
- effect on FtsZ GTPase activity (in words) [2]: no effect on the GTP activity

B1: Native Temporin L (peptide)
peptide: FVQWFSKFLGRIL
notes: Temporin-L, amphibian antimicrobial peptide, 13 residues; also called TL; native TL
- Kd [3]: 11 ± 1 µM

B2: TRIL (Temporin-L analogue) (peptide)
peptide: FVKWFKKFLTRIL
notes: Temporin-L with Q3K, S6K and G10T; Designed from the docking model of FtsZ with TL
- Kd [3]: 21.4 ± 1.1 µM

Molecule: B3
- binding result [4]: binds
